# The DeepSol protein solubility set
# Assay: soluble on expression in E. coli; label from the status in PepcDB or PDB records
row,Sequence,soluble on expression in E. coli
1,MGLCVSKGSTASSPQHYAVRYTEQVTPSPSPSVASTSPSLHDSTAIGSPLARRSVLLPHEVQQAAYQLAMRLNGRAIEDASDRKRLVDATATVHETRLALHRGRGKVDSDLRLSNGRSATYSSLSYCLGEDDENLLAGSALAAGAGNCDHNAAINTRRHAVRMEDGGQMMTVRDYEQTHLYALYQPPNSAEADESTVVLDSWGDGPAVLLRDSHWAESYGTSTHVIERFDKPDATDALARTNAFRAEIENPQTALHANARELETAFLANPAPGDIFSAMPVIAPHLAESTRRRLQECSPRTRNVLAADAARDAYGLDDAQANSPRTTKAILKEAKRLDALGRPPLSW,not soluble
2,MGLCVSKPSVAGSPEHYAAHVAEQATPSEEGSGTPAQATSSYSATDPALQGLARRGKKVDLSRSGLPERVALKTKLLANSLSDAKDAGVRSSIVKYGERTLKMLAANKQPDEALLKLDIKNLPALASVYNRRYPGLNIQHFDSPIDFLQSLSEQTTSVVSQRAVLRLERDGEHHVAADVRRRPNGEASVIVLEPARLLTFVTGHTQLRRQALSQLGENAKFAFIQVGAQKSAADCLMFDLHFALHAHQHSSLFDQWHDNMVNHGTIDPYGQGAASPDALLEDAGVELMLGEQMLPAIFYKHTHSSGVVEEVDRSQPGSAYTDVSTSGRQQQHESLEQRVQAFRVDRGYSASIETSRATKIRSALETAISDRQS,not soluble
3,MGLFNNFKFKYTRAQLEIFRFSFCLLAPVAVMYYIGTDTDKKLNVPGFWPDPATLNQIPKEPYEIKAELARMKKERLEKRLRLEKKIQEEFGLDLEEEKEKIKRDLALKKG,soluble
4,MGLGRQSLNIMTFSGQELTAIIKMAKSMVMADGKIKPAEIAVMTREFMRFGILQDQVDLLLKASDSIEASQAVALIARMDEERKKYVASYLGVIMASDGDIDDNELALWTLISTLCGLPTMTVMEAINNMKNL,soluble
5,MGLIFAKLWSLFCNQEHKVIIVGLDNAGKTTILYQFLMNEVVHTSPTIGSNVEEIVVKNTHFLMWDIGGQESLRSSWNTYYSNTEFIILVVDSIDRERLAITKEELYRMLAHEDLRKAAVLIFANKQDMKGCMTAAEISKYLTLSSIKDHPWHIQSCCALTGEGLCQGLEWMTSRIGVR,soluble
6,MGLREIEKVTVFCLANENTDISYEVNRALGEIRIYVPYDFMDFLALNSVEEKYKEFCKLVRQYVVPGLEENSTLSSSVVKGYIEESLDEIVKQNYEGIFLVGKTPKKSPSRKKIAILKGIHRVKGFQLRCEVYDEKGLKIRDQLLVEEVGNEMVYSRFLGTLKWESENLIVVQSKSSSWKEEIYL,not soluble
7,MGLRFPPKVLEHILSFIDSNEDRNSVSLVCKSWFETERKTRKRVFVGNCYAVSPAAVTRRFPEMRSLTLKGKPHFADYNLVPDGWGGYAWPWIEAMAAKSSSLEEIRMKRMVVTDECLEKIAASFKDFKVLVLTSCEGFSTDGIAAIAATCRNLRVLELRECIVEDLGGDWLSYFPESSTSLVSLDFSCLDSEVKISDLERLVSRSPNLKSLKLNPAVTLDGLVSLLRCAPQLTELGTGSFAAQLKPEAFSKLSEAFSNCKQLQSLSGLWDVLPEYLPALYSVCPGLTSLNLSYATVRMPDLVELLRRCSKLQKLWVMDLIEDKGLEAVASYCKELRELRVFPSEPDLDATNIPLTEQGLVFVSKGCRKLESVLYFCVQFTNAALFTIARKRPNLKCFRLCVIEPFAPDYKTNEPLDKGFKAIAEGCRDLRRLSVSGLLSDKAFKYIGKHAKKVRMLSIAFAGDSDLMLHHLLSGCESLKKLEIRDCPFGDTALLEHAAKLETMRSLWMSSCFVSFGACKLLSQKMPRLNVEVIDEHPPESRPESSPVERIYIYRTVAGPRMDTPEFVWTIHKNPENGVSHLAIK,not soluble
8,MGNCESRELVAQAKQNKIINTELDKAKKTDENIIKLLLLGAGESGKSTVLKQMKIIHNSGFSQEEISNKRNVVCANTVQAMGALLDGMKQLQFDFSTRVCNAHEKLIRETLNDKAEYGPFSDAMFNALTELWADKGVQCAYDKREFFYLHDSAKYFFDAIARVHTPNYVPTENDILHTRVPTMGVIEVNFTIKGKFFRVFDVGGQRSQRKKWIHCFDDAKAMIYVASLSEYDQVLLEDNTTNRMHESIQLFKQVINNKYFVNTSVILFLNKIDLFEEKIVTKKRSLGIAFESFSGPSQDLNAAVAFVEKKYRSMAENKEKNIYCHHTCATDTQQVQYVLDAVLDTILSTKLKGCGLY,not soluble
9,MGNFYSLGKKEPVIRLLQITDCHLFSSESECLLGINTTETFQAVIEHIHQTDFAYDAVLATGDLIQDHNPEAYHRFAEMAKQFVKPLFWLEGNHDKQPQMSLYLGKHPHIQPEKQLLAGEKWQILLLNSQVAGAPSGYLSAGQLAWLNSKLAKHLDRYALVVLHHNILPTNSAWLDQHCLKNSEQLAKVLKSYRNVKAILHGHIHQEVDRVWQGYRVLATPSTCIQFKPNCRDFTLDMLPQGWREISLLEDGSIETTVKRLASNQFLPDFQSKGY,not soluble
10,MGNGGILCALKTDSCSMLVISNNVHLPDAEIELTAIRAQGAGGQNVNKVSSAVHLRFDIPASSLPPFYKERLLALRDSRITSDGVIILKAQQYRTQEQNRADALERLTELILSAIKVEKKRRPTKPTLGSKKRRLETKAKRGSIKAGRGKVDFLEHHHHHH,soluble
11,MGNINSLFTTNPSEILPVEVYLNDLSCDAVENLGSTRFMKVARGRTHEGVFVYKVFVRQDLASLDPFPQRIIDIRKALMKSPNCCPIKKVLVKQKYAVMVRAFQKHTLFDRLSTRPFVVEAEKMWYIFLLFKALSQCETAGVCHGDLKSQNVLISSTNWLQITDFAPFKPCFLTHDNPSSFTFFFDTSRRQSCYIAPERFISATEYDEKLRDGQDEWLFGSLTPKMDMFSAGCIVFELLCDRPPFTYSSLCEYRSMNDADAGNMLLRLIQDVPAPYRPLLRLLLNRDPSFRISANAVLTGAALKFPHILESFLFKYLDRFRPLYGTSTSSDPSTDDFSQALEFSYLEPDDVITKLKREKQLWWARLSENDESKSFAFLFVSLITANLRALRTIQGKTDAIRMLVELSTISDSSVAIDRILPYFVHLWMDPETQVRATAVTAVAELLAPIQPKTYEESLVFVDYLFPHLNSMSNDSIDSPQHVLFAIATSLGQFADTAYRFYMAGREIRQATMYDDEVSTAGEQQQNDDAGALLHGVSAMFSALCSKEPMVKRCLVESKSLILLYHFFIKIGNDDTLLRFLCTFLNAKTEWRLRAAFFDSLPVCVQKRSEGMVPLLQLGLQDGEEHVVVRALGCIHILIKNENLDKMSVKKLLDDVLPFLVHPNDWIRSTVCDILLAIDCQWHNAEVHVKLIPLVSPFVEESKRGVLTLKSKPVLMSQLVDPIPRTTFNQIIDQSLENTKQITMLLEIHFQTGKPFEAGAGWFNTIFPKIKTETKAGVVEHNDLKAALEARKRLTASVYSFRKLFERMAETRNTAGMEIYLTRQLGTIDLSSIAHSRVRRKEFTYGGDESAMSSNSKHLTAINIPNHSTERRDTLLLAGEVVIEEERTVTNTPAPYSPVKNTTFDNQVNEMLAHLNELHMRNVNCRPKRPLAASASHPVLSASPSAGSLGSSSNNNVKGIIITHLHEHSGKITKLCANRESDLFLSGSTDGTVKVWKTRSVLGEGYGSARSEDTWIPTETSREKVNSVGWNDQFACSATNDGFVRWADVGQGSARVATQVRIPDAEGPPVYLHCNGPMAIVRTHHGVLYGIDLRVGASEGPLKRHDIWRKKFQESHGLVTSSAIDPWQQSWMVIGNNSGQKNLVLYDLRFKEEVLRWESPHQNTQPNRVWANPVSRQECPEVFVGFSMHGEISTYELSAQPLRKRVFWTGGAPILSYSAASNDARKQDSLATRSLCVCEKTGVVYTGDTRGAIRKWNPTRAVGCEIISAPPKGRTAYRTIFEENDTSTAPSGASTDPFVIYERTVLDTEAKENQKVVPLDSKPSTYHRTPITDMMLLNSELLVSSGYDGVIKIWK,not soluble
12,MGNRIPDEIVDQVQKSADIVEVIGDYVQLKKQGRNYFGLCPFHGESTPSFSVSPDKQIFHCFGCGAGGNVFSFLRQMEGYSFAESVSHLADKYQIDFPDDITVHSGARPESSGEQKMAEAHELLKKFYHHLLINTKEGQEALDYLLSRGFTKELINEFQIGYALDSWDFITKFLVKRGFSEAQMEKAGLLIRREDGSGYFDRFRNRVMFPIHDHHGAVVAFSGRALGSQQPKYMNSPETPLFHKSKLLYNFYKARLHIRKQERAVLFEGFADVYTAVSSDVKESIATMGTSLTDDHVKILRRNVEEIILCYDSDKAGYEATLKASELLQKKGCKVRVAMIPDGLDPDDYIKKFGGEKFKNDIIDASVTVMAFKMQYFRKGKNLSDEGDRLAYIKDVLKEISTLSGSLEQEVYVKQLASEFSLSQESLTEQLSVFSKQNKPADNSGETKTRRAHLTTKARQKRLRPAYENAERLLLAHMLRDRSVIKKVIDRVGFQFNIDEHRALAAYLYAFYEEGAELTPQHLMARVTDDHISQLLSDILMLQVNQELSEAELSDYVKKVLNQRNWSMIKEKEAERAEAERQKDFLRAASLAQEIVTLNRS,not soluble
13,MGNSSSLMLRDEEIEEIMSETEFNRNQIVRLYSRFLSLDKKGQGFLSRDDFLNVPELAVNPLGDRIVDAFFTLASSNGDNEEQQLNFRQFVRILAHFQPISRVKKNALNSRKDKLLFAFKMYDLNKNDYITREEFKVILNSMVGANITSDQLDKIADRTIEEADADRDGKISFDEFCRAMEKTDIEEKMSIRFLN,soluble
14,MGNVMLSKRKSGSMADDTGEHPVCFNCTLRVDQTIHVKCFECPLRICILCFQCGAESPPHRRGHNYELVKPTSNPEAMSWTHEDEFELLKAAHKFKMGNWGEIAESIGRGRKDGHNCKDYFEKHFVRGWIGQFSIKSSSWDRIKYGMYINQTLDSVLQKNCLESTERMLLIRDAVRASGESWDENDPKLAIKVQQVLEQYVQKVIDGDIETKYERPKFLTNQYETELSPDDCDPDNERDMKSKRSVKQEINTDDSDNDNSPGPSSSCRKKGPPSPKRRKTTRVMRESSSDSDDDKSQASDKDTYHGMERETEEEDPPSAFETAQEFDTEDEEEEKKPKRGTASSSKRRKRRRMWVSKKDRRLHEFRKKMNQEVKELRSAYPRLLHESGVSKSETRPKMRRSDELKILGYNNEREELECEWFNEAEQLISRLTISATEPQKDQRLDMENDIKFARLRHYVRLLGIRKAKRNTVLEHDKINEFMKFYQEACYAAAKRPVSQQEIMDSRTEKEKLLAMTQQFLTRDEYRSLRASIERIDNVVERIEVLQDLQKNGETTLKNAPVERKSKKKMRKIDCEQKKKIATEWSKFKKWHTEGWE,not soluble
15,MGPAPRILELFYDVLSPYSWLGFEVLCRYQHLWNIKLQLRPTLIAGIMKDSGNQPPAMVPRKGQYIFKEIPLLKQFFQVPLNIPKDFFGETVKKGSINAMRFLTTVSMEQPEMLEKVSREIWMRVWSRDEDITEYQSILAAAVKAGMSTAQAQHFLEKISTQQVKNKLIENTDAACKYGAFGLPTTVAHVDGKTYMLFGSDRLELLAYLLGEKWMGPVPPTANARL,soluble
16,MGPAPRVLELFYDVLSPYSWLGFEVLCRYQHLWNIKLKLRPALLAGIMKDSGNQPPAMVPHKGQYILKEIPLLKQLFQVPMSVPKDFFGEHVKKGTVNAMRFLTAVSMEQPEMLEKVSRELWMRIWSRDEDITESQNILSAAEKAGMATAQAQHLLNKISTELVKSKLRETTGAACKYGAFGLPTTVAHVDGKTYMLFGSDRMELLAYLLGEKWMGPVPPTLNARL,soluble
17,MGPVRFAPSILTADLARLGEAIREAEAAGVDWIHLDVMDGVFVPNLTFGPLLVEAVRRVTSLPLDVHLMIVKPERYLEDFAQAGADHITVHFEATYHPHRAVQKVKELGKKAGLAVNPGTPLEAFEPLLPDLDLALLMSVNPGFGGQRYLPTATERLRRLKAMRDRLNPACLIVVDGGINRDTVAEARRAGADVAVAGSALFNDKPVAENLKALRLALLG,soluble
18,MGQFYCLHCDRYFSNVSVRDDHFKTKKHKKRVNMMMGQAPHSQLDADLAGGMGMPDNGPKLMSNLVFTELRKPETEDLPGMGQFNCLLCHRNFSNASVMDYHFKTKKHKKRVKKIERPAPHSQLDADLAGGMGMPDNGPKLMSA,not soluble
